# Data taken from the DeepSol protein solubility set.
# Assay: soluble on expression in E. coli; label from the status in PepcDB or PDB records
row,Sequence,soluble on expression in E. coli
1,MISKGFSTQTERINILKAQILNAKPCVESERAILITESFKQTEGQPAILRRALALKHILENIPITIRDQELIVGSLTKEPRSSQVFPEFSNKWLQDELDRLNKRTGDAFQISEESKEKLKDVFEYWNGKTTSELATSYMTEETREAVNCDVFTVGNYYYNGVGHVSVDYGKVLRVGFNGIINEAKEQLEKNRSIDPDFIKKEKFLNSVIISCEAAITYVNRYAKKAKEIADNTSDAKRKAELNEIAKICSKVSGEGAKSFYEACQLFWFIHAIINIESNGHSISPARFDQYMYPYYENDKNITDKFAQELIDCIWIKLNDINKVRDEISTKHFGGYPMYQNLIVGGQNSEGKDATNKVSYMALEAAVHVKLPQPSLSVRIWNKTPDEFLLRAAELTREGLGLPAYYNDEVIIPALVSRGLTLEDARDYGIIGCVEPQKPGKTEGWHDSAFFNLARIVELTINSGFDKNKQIGPKTQNFEEMKSFDEFMKAYKAQMEYFVKHMCCADNCIDIAHAERAPLPFLSSMVDNCIGKGKSLQDGGAEYNFSGPQGVGVANIGDSLVAVKKIVFDENKITPSELKKTLNNDFKNSEEIQALLKNAPKFGNDIDEVDNLAREGALVYCREVNKYTNPRGGNFQPGLYPSSINVYFGSLTGATPDGRKSGQPLADGVSPSRGCDVSGPTAACNSVSKLDHFIASNGTLFNQKFHPSALKGDNGLMNLSSLIRSYFDQKGFHVQFNVIDKKILLAAQKNPEKYQDLIVRVAGYSAQFISLDKSIQNDIIARTEHVM,soluble
2,MISLVLGLLTSKLHYEQTYYTEIAKRARLYHNVVAQFTPFCIDSKTDLVSGLIYDTDTGKWKEQTFPIPSYIYDRYSFHEETDFEKAKSIIHSLHNRPSTTFLNNTLINLSELHDLFLTNKKLSPYIPKFEVATIQNIFKLLLKSKDIIIRPTNIHSKDNLYRVAYKNKTFHIDTVNEKYHTSLSIKRTDEFISWCKSNIRSSRYIVHTMLQPPNQLTYPLHIRTILQKNKEQTWNVIGQFIQKSSFPNQLLPSATDDDSLHSFSKIKYVLSSTGVQLLQDALHDIINEVFQTLDQSYSSLFELELSTIMDQKGAIWLMYVNTIPPYEQYIRHSDSLAEKIFHGPLKFSRFTP,not soluble
3,MISRVGADLGLSATAHVPRTDEPQKAKDFTTDQEVRWCPGCGDYVILATIRSFLPELGLRRENLMFVSGIGCSSRFPYYLDTYGLHSIHGRAPAIATGLAVTRPDLSVWVVTGDGDALSIGGNHLIHALRRNVNMTILLFNNRIYGLTKGQYSPTSEVGKVTKSTPLGSVDHPFNTLSLALGAEATFAARAMDSDRKGLTEVLRQAAAHRGTSFVEIYQDCPIFNDGSFDVLRKDGSEQRLIPLTHGEPIVFGGAGEYCVVRSGFGLKVVATADVDRDDIVVHDAHTDDPDYAYALSRLSDQDLTHTVTGVFRSVTRDTYDDMVRLQNEIAQEKDPVDDGSLQRLLTGHDTWTVE,not soluble
4,MISSNSSSTSLNVETDYPTNGKKPLKEGSVQLTSLSTLLSHHRYFFLYHETLIISKQKGACSYKLKEKLRLEKVWIASSNTADSFLIGWPFTNYLVHFRNTEEKDEWFELLSCCVQQCLRPLFTTISMEINVRGRKQTIRRRVDNGKKSGEIVVDTAGDLGLPHTSYQLTLSFGDNSHRQLQGPENVYVAIMSEIERQGTRLSESQKQALDTCPIANCRLILSTIKSTSGPSAKQLVNSIKKKVLTRTDSRSIFGKGLNGPTPPQPIMTIVDHLRMDGFDAEGIFRKSPKQSTFKELKCELDKGVVPDFHKYNTHVLASILKEYLRSIPGKILLSGNYELWMREIADEPNTEKKVSCCRALLSHLPTSHSILLANVLKLLNKISNSPSSKMNASSLSVCLAPSFLESPDPMEGGKKIPPLIEFLISHAAQVMPGFSTDNVFAIMTSPMVDHNANMVCSPAPSSSHSDDGGSSQKTPIIEELNDADDATSQSSLAESDLPDEPRGTSAHLETISEISEPPTNDERLVFSSSEDEDDDDEDELRVYRPKSSTSTSSCFARTSFVSETLKTSADDGDKGLNKETPRSPCLKRIHFQRTEAQHRNKEGNIKLDFEALKFHRPSVRKSSLEEVARKNSAEFFHHSREPSDAAVTPTPPKNGSTMRKESREEATQTADCGLPHISSNDDSDSRFPAFKSSSVAMLTEPYKSSSSSSSSTSSIPSDPAPRPYFLKEEYTSLANKPTVQVAPFSQEPSLKTINDRLNALRQNSILAQEVPQEPVMTSSRLRSEATKSLTNSPIMPRSYGGSLMQKDREEHSFVADDFYKASSRKPELQRSSSQRGLTSMNNNNNSTKQIYGARPSSLKTPRRFAGAGGVEACVGMDPLEINWSVSQLKTLFQDTKAPSIDTTYNMN,not soluble
5,MISSTKLSILALALVGAVLARPQFPGGPPPGMSAVPPPIAAVLPPETLARLEAIHADSSLSELEKHKAIDTIMVNLPEEVHDRIPPPPGFAQLPAEVQAQLKTIHRDKNLDFQERQAAIHGVLENLAPEFKRLLPPPPPGFPQRRQ,soluble
6,MISVMQQMINNDSPEDSKESITSVQQTPFFWPSAAAAIPSIQGESRSERESETGSSPQLAPSSTGMVMPGTAGMYGFGPSRMPTANEFGMMMNPVYTDFYQNPLASTGWYSYGQPYQFTANYSIPSLDGNLSDITIPTTAGSSAATTPNAAMHLPWAISHDGKKKRQPYKKDQISRLEYEYSVNQYLTNKRRSELSAQLMLDEKQVKVWFQVCYRQYSAESLEIINVNFYLMS,not soluble
7,MISVTFRQILGLVSLLCATWLYSQCRHIWLLAQDDFNEQFTNFLGEKWWSTDQLELCDDETKDTKWQKNDSICITYVYNMLPVDMEIISWAPTLVIYRNLMSPRQTASFLNFIEQRDLEIQKTSDFGTSIETTHRRANGSFIPPEDSNVTVEIKMQAQKRIPGLNLTVAEHFSALSYLPGGHYAVHYDYLDYRSKQDYDWWMNKTGNRIGTLIFVLKPAEKGGGTVFPSIGSTVRANAGDAFFWFNAQADEEKEMLSNHGGCPIYEGRKVIATIWIRAYNQRILPMAPAGSSIHASWLIPSLSNRFRPEMQTQSPVPN,not soluble
8,MITFKPTRNIDLIEAVGNHPDIIAGSNNGDGYDYKPECRYFEVNVHGQFGGIVYYQEIQPLTLDCHAMYLPEIRGFSKEIGLAFWRYILTNTTVQCVTSFAARKFRHGQMYCAMIGLKRVGTIKKYFKGVDDVTFYSATREELIDFLNHGR,not soluble
9,MITSYEATVVTTDDIVHEVNLEGKRIGYVIKTENKETPFTVVDIDGPSGNVKTLNDGVKKMCLVHIGKNLPAEKKAEFLATLIAMKLKGEI,not soluble
10,MITVVIADRLGKGQNVAKGVEQAGGRAVVVPGMGADMRLGDVMQQEKADLGISFCGSGGAGALTAATKYGYPERHGMRSIEEGVTAINDGKTVLGFGFMDQEELGKRVTEAFIKKHGA,not soluble
11,MIVFKAENLSVGYNGVKAVSNINFSAKQGEIICLLGPNGAGKTTIIRTLSGLLPPIEGEIHINGKSLSTINKKLLAQTLSVVLTEKPSFDVMTAFDVVSLGRFPHTGFFGTITKEHEIKVVEALKTVGALNLIDKYFHILSDGERQKVMLARALVQEPQIIILDEPTTHLDINHKIELLNTLKNLSRTAKLTVILSLHEIDLALKYCDKVMLVENKKVLSFGSPETTVNGETINKLYGIKNASFNPITSSIELKNSEKSNIYVIGGCGFGTPIYRLLSKYNLGFSTGILHENDIDYETAKTMSLRLQSEKPFQKISKISFEKALAAVASSDIIIDSGFPIGETNEKNLNLLNYAVEKNKRVITFRKYFNSTMSYCSNKDALIDFILRLEHHHHHH,not soluble
12,MIVKTEEELQALKEIGYICAKVRNTMQAATKPGITTKELDNIAKELFEEYGAISAPIHDENFPGQTCISVNEEVAHGIPSKRVIREGDLVNIDVSALKNGYYADTGISFVVGESDDPMKQKVCDVATMAFENAIAKVKPGTKLSNIGKAVHNTARQNDLKVIKNLTGHGVGLSLHEAPAHVLNYFDPKDKTLLTEGMVLAIEPFISSNASFVTEGKNEWAFETSDKSFVAQIEHTVIVTKDGPILTTKIEEE,soluble
13,MIVWSVANQKGGVGKTTTTITLAGLLSQQGKRVLLVDTDPHASLTTYLGYDSDGVPASLFDLFQLREYNEASVKPLILNTDIQGIDLIPAHMSLATLDRVMGNRSGMGLILKRALLALRHVYDYVLIDCPPILGVMMVNALAASDRILIPVQTEFLAMKGLERMVRTLAIMQKSRSREFKVTIVPTMYDKRTRASLQTLNQLKKDYPDKVWTSAVPIDTKFRDASLQRLPASHFAEGSRGVFAYKQLLLFLERLAIDE,not soluble
14,MIWNEHHECMGRDQLASLQGERLRQMVERIYYNVPFYRNKLQEMGIEPGDIRSIDDLKKLPFTTKQDLRDNYPFGLFAVPQQDIVRFHASSGTTGKSTVVGYTHNDIMMWSEVVARSLTMAGVTKHDIIQVAYGYGLFTGGLGLHYGAEKIGASVIPISGGNTKKQLQLLEDFGSTAIACTPSYAAYLGEAIMEEKLDRSKIKLKAGIFGAEPWTEEMRSQIQQLLGIKAYDIYGLSEVIGPGVSMECSIQHGMHVFEDHFIPEIINPETGEVLPYGELGELVFTAVTKEALPLLRYRTRDLTRLHVERCDCGRTLVRMEKCVGRSDDMLIIRGVNVFPSQVESVLLEMSETKPHYLLVVDRQNNLDTLEIQVEVEDQFFSDEVKELEGLRKRISGNLTSILGLHANVRLVEPGTIERSQGKAQRVVDKRKLNEHKETP,not soluble
15,MIYKSIAERLRIRLNSADFTLNSLLPGEKKLAEEFAVSRMTIRKAIDLLVAWGLVVRRHGSGTYLVRKDVLHQTASLTGLVEVLKRQGKTVTSQVLIFEIMPAPPAIASQLRIQINEQIYFSRRVRFVEGKPLMLEDSYMPVKLFRNLSLQHLEGSKFEYIEQECGILIGGNYESLMPVLADRLLARQMKVAEHTPLLRITSLSYSESGEFLNYSVMFRNASEY,not soluble
16,MKAARQQAIVDLLLNHTSLTTEALSEQLKVSKETIRRDLNELQTQGKILRNHGRAKYIHRQNQDSGDPFHIRLKSHYAHKADIAREALAWIEEGMVIALDASSTCWYLARQLPDINIQVFTNSHPICHELGKRERIQLISSGGTLERKYGCYVNPSLISQLKSLEIDLFIFSCEGIDSSGALWDSNAINADYKSMLLKRAAQSLLLIDKSKFNRSGEARIGHLDEVTHIISDERQVATSLVTA,soluble
17,MKADHPEDIEDIKELIAQTENEQVEFKETTGQLERGMETLCAFLNGEGGTVLFGITDKGKIIGQEVADVTKRSIAEAINRLEPTANVHVFYIPLPDSSKKIIALHVENSRDNRPFCYKSRPYYRVESVTSAMPQAVYNQLLIIRDEAKYRWELFENPKLSLQDMDENEILKTVRLGIECGRLPENTGNNLSIILEKFGLLVNGVLNNAAAVLFANRELIEYPQCLLRLARFKGTDKMVFMDNQRVQGNLFQLLDSAMTFIFKHLSLSGTTEALEREEHLTIPYKAIREGIINSLCHRQFRTPGGSVGIAIYDDRVEIENPGTFPHGWDMERMKSEHCSEPRNPLIANVLYKRKLLENWGRGISLMTEECRKANLPEPEFKLANGFVILVFRYGTNNHTSTMQVPHKHHISTIQVQSLLNIMEYNTYSVKEMMELLELKNRSYFSKEYLKPAVETGVIEPIFPDQPKSPKQKYRLTEKGKALLEKRLEHHHHHH,soluble
18,MKAKLVSLLAQANIKISDQQIQQLINLVNLLNKWNKAYNLTSVRDPQEMLVKHILDSLVVSPYLQGDRFIDVGTGPGLPGLPLAIINPSKQFVLLDSLGKRISFIRNAIRELRLTNVTPVLSRVEEYQPEDKFDGVLSRAFASLKDMTDWCHHLPKENGYFYALKGIYQEDEINELNKKYTIQKVIELSVPELIGERHLIVLRLEHHHHHH,not soluble
